These results are taken from patent US20240158517A1 (HIFIBIO HK, published 2024).

In assay [1] the target is T1, human CXCR5 (human, UniProt P32302 1-372).
T1 construct: whole, on cells; Always presented on cells; one entry is used for all cell lines; also called hCXCR5; C-X-C chemokine receptor type 5
T1 sequence (looked up): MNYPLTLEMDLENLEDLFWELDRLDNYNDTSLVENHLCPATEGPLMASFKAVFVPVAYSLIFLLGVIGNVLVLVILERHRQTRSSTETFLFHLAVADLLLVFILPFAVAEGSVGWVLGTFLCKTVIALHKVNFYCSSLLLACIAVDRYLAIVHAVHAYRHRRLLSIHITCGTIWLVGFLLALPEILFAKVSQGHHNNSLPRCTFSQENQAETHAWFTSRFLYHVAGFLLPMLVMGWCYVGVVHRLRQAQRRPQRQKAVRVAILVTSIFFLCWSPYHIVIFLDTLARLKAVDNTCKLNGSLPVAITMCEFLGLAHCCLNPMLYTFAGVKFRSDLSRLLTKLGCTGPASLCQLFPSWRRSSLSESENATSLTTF
In words: flow cytometry on CXCR5+ Raji cells, MFI.

Another assay addresses CD16 (UniProt P08637 17-254, limits assumed). Description: cell-based or functional assay.
Assay [2] addresses T1, human CXCR5. In words: binding to hCXCR5, Exp 2 (assay not given).
For assay [3], the target named is T1, human CXCR5. In words: binding to hCXCR5, Exp 1 (assay not given).
The target of assay [4] is T2, murine CXCR5 (mouse, UniProt Q04683 1-374).
T2 construct: whole, on cells; also called mouse CXCR5 ortholog
T2 sequence (looked up): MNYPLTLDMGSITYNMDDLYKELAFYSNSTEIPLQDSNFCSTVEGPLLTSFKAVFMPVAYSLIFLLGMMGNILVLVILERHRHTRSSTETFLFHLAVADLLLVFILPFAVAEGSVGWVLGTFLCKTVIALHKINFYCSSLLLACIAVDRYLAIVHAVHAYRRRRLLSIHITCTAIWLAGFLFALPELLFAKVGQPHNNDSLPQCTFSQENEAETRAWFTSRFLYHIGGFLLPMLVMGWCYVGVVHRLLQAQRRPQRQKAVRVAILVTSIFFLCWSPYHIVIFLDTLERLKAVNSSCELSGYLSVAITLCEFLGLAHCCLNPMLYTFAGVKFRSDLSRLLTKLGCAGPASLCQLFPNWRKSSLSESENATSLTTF
In words: flow cytometry, transiently transfected cells. (In flow cytometry, cells or beads pass a laser one at a time.)

The target in assay [5] is T1, human CXCR5. In words: flow cytometry on an adherent stable cell line expressing hCXCR5, MFI normalized on the benchmark MFI.
Procedure: In order to test the binding capacity to CXCR5, six chimeric monoclonal antibodies were tested in binding assay using adherent stable cell line expressing the target antigen hCXCR5.
For assay [6], the target named is T3, human CXCR3 (human, UniProt P49682 1-368, limits assumed).
T3 construct: also called hCXCR3
T3 sequence (looked up): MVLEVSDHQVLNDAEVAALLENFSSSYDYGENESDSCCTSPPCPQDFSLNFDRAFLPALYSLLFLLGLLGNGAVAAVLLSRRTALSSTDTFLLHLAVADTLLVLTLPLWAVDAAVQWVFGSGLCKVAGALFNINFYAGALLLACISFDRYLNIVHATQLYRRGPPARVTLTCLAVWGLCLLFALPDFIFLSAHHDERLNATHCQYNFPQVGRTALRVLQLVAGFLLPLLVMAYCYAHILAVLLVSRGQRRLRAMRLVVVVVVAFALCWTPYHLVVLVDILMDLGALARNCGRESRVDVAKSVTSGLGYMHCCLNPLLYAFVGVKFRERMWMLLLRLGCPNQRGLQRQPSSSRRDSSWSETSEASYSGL
In words: specificity assay by flow cytometry.

A further assay has as its target T4, cynomolgus CXCR5 (cynomolgus monkey, UniProt G8F5K4 1-372).
T4 construct: whole, on cells; also called monkey CXCR5 ortholog
T4 sequence: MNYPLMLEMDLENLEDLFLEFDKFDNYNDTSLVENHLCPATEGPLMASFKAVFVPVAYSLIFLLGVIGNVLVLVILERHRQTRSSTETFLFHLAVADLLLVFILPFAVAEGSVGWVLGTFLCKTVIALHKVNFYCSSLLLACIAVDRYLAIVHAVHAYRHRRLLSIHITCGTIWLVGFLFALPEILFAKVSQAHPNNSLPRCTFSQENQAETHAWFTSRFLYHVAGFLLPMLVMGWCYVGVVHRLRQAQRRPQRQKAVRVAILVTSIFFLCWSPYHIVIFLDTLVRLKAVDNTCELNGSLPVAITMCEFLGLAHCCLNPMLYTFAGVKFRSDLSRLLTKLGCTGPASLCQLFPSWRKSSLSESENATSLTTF
In words: flow cytometry on cells transiently transfected with cynomolgus CXCR5.

Assay [7] concerns the target T3, human CXCR3. In words: flow cytometry (MFI) on hCXCR3.
Assay [8] addresses T1, human CXCR5.
The target of assay [9] is T2, murine CXCR5. In words: flow cytometry on cells transiently transfected with murine CXCR5.
Assay [10] has as its target T1, human CXCR5. In words: flow cytometry on DX002 cells expressing CXCR5, MFI.

Where two headings read alike, the source gives them in different places.

CD16, sequence (P08637 17-254 limits assumed): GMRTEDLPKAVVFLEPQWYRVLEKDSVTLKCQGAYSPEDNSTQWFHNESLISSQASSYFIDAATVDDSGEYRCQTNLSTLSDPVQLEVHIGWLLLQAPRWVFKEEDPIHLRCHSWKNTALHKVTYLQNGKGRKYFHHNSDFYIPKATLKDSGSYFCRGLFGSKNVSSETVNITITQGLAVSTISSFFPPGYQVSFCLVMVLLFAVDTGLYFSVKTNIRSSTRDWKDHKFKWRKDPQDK

B1: HFB2-4hz42hG1 (antibody, V domains shown)
VH: QVQLVQSGAEVKKPGASVKVSCKASGFSLTSYGVSWVRQAPGQGLEWMGVIWGDGSTNYAQKLQGRVTMTKDTSTSTAYMELRSLRSDDTAVYYCARVVYWGQGTLVTVSS
VL: EIVMTQSPATLSVSPGERATLSCRSSKSLLHSNGKTYLYWFQQKPGQAPRLLIYRMSNLASGIPARFSGSGSGTEFTLTISSVQSEDVAVYYCMQHLEYPYTFGQGTKLEIK
notes: Humanized, human IgG1 (hG1); also called HFB2-VH10VL6
As to B1, the EC50 (read off the curve) (usually the concentration needed to bring the measured effect to its halfway point) with human CXCR5 [1] is around 0.3 nM.

B2: HFB2-4hz9-hG1DE (antibody, V domains shown)
VH: QVQLQESGPGLVKPSETLSLTCTVSGFSLTSYGVSWVRQPPGKGLEWIGVIWGDGSTNYNPSLKSRVTISKDTSKNQVSLKLSSVTAADTAVYYCARVVYWGQGTLVTVSS
VL: DIVMTQSPLSLPVTPGEPASISCRSSKSLLHSNGKTYLYWFLQKPGQSPQLLIYRMSNLASGVPDRFSGSGSGTDFTLKISRVEAEDVGVYYCMQHLEYPYTFGGGTKVEIK
notes: Humanized (VH3/VL1), human IgG1 constant region with S239D/I332E (hG1DE)
B2: the “ADCC activity, EC50” value in the assay with CD16 is 0.001 to 0.002 nM. Besides, the EC50 (as a rule, the concentration giving half of the maximal effect) with human CXCR5 [2] was 1 nM; with human CXCR5 [3], 1.3 nM.

B3: HFB2-5-hG1 (antibody, V domains shown)
VH: QVQLKESGPGLVAPSQSLSITCTVSGFSLTSYGVSWVRQPPGKGLEWLGVIWGDGSTNYHSTLISRLSISKDNSKSQVFLKLNSLQTDDTATYYCARVAYWGQGTLVTVSA
VL: DIVMTQAAPSIPVTPGESVSISCRSSKSLLHSNGKTYLYWFLQRPGQSPQLLIYRMSNLASGVPDRFSGSGSGTAFTLRISRVEAEDVGVYYCMQHLEYPYTFGGGTKLEIK
notes: Mouse-human chimeric antibody, human IgG1 constant region
For B3, the figures for the binding result with murine CXCR5 [4], with human CXCR3 [6] and in the assay with cynomolgus CXCR5 were “no binding”, “no binding” and “no binding (tested: about 150 nM)”, respectively. Besides, in the assay with human CXCR5 [5], the concentration giving a half-maximal response (EC50) was 3.43 nM.

B4: HFB2-3-hG1 (antibody, V domains shown)
VH: QVQLKQSGPGLVQPSQSLSITCTVSGFSLTSYGVHWVRQSPGKGLEWLGVTWSGGRTDYNAAFISRLSINKDNSKSQVFFKMNSLQVNDTAIYYCARGGNYWGQGTSVTVSS
VL: not shown
notes: as for B3
Consider B4, for which the binding result with human CXCR3 [7], in the assay with murine CXCR5 [9] and with cynomolgus CXCR5 was “no binding (tested: about 150 nM)” each time. Also, a half-maximal effect in the assay with human CXCR5 [8] (EC50) was put at 0.569 nM.

B5: afucosylated HFB2-4hG1 (antibody, V domains shown)
VH: QVQLKESGPGLVAPSQSLSITCTVSGFSLTSYGVSWVRQPPGKGLEWLGVIWGDGSTNYHSGLISRLSISKDNSKSQVFLKLNSLQSDDTATYYCARVVYWGQGTLVTVSA
VL: DIVMTQAAPSVPVTPGESISISCRSSKSLLHSNGKTYLYWFLQRPGQSPQLLLYRMSNLASGVPDRFSGSGSGTAFTLRISRVEAEDVGVYYCMQHLEYPYTFGGGTKLEIK
modifications: afucosylated (no core fucose on the Fc N-glycan of the heavy chain)
notes: Afucosylated format of the chimeric HFB2-4hG1 (human IgG1, no DE mutation); also called afu-HFB2-4hG1; AfuHFB2-4hG1
Consider B5, for which the EC50 with human CXCR5 [10] worked out at 0.81 nM.
